Experimental data published in the RNAGym collection of RNA variant scans (doi:10.7554/elife.80360).

B1: Hairpin Ribozyme (parent)
chain: GUCCUCUUUCACGUGCGCGUGAAAGAGAGAAGUGAACCAGAGAAACACACGUUGUGGUAUAUUACCUGGUA

Variants of: B1
Test: self-cleavage, relative activity (ratio to wild type); higher = more cleavage; co-transcriptional

| Variant | self-cleavage |
| --- | --- |
| G25U G57A | 0.145 |
| G25C G40A | 0.0978 |
| G25U C38G | 0.0734 |
| G25C C50A | 0.214 |
| A26C G56U | 0.23 |
| G25U U70A | 0.432 |
| G25U U70G | 0.613 |
| G25U U70C | 0.679 |
| A26C A59U | 0.245 |
| G25U C46U | 0.157 |
| G25U C46A | 0.205 |
| A26C A31C | 0.0424 |
| A26C A31U | 0.097 |
| A26C A31G | 0.445 |
| G25U C37A | 0.261 |
| A26C G29U | 0.109 |
| A26C G29A | 0.149 |
| A26C G29C | 0.136 |
| G25U C66U | 0.315 |
| G25C A26G | 0.254 |
| G25U G32U | 0.0897 |
| G25U G32C | 0.187 |
| A26G A36U | 0.326 |
| A26G A36C | 0.474 |

| Variant | self-cleavage |
| --- | --- |
| G25U A43U | 0.217 |
| G25U A43G | 0.183 |
| A26G | 0.901 |
| A26C | 0.708 |
| A26C C50U | 0.306 |
| G25C G69A | 0.149 |
| G25A U70C | 0.588 |
| G25C G68A | 0.192 |
| A26C G32U | 0.196 |
| G25A G51C | 0.479 |
| G25A U55G | 0.159 |
| G25C A64U | 0.134 |
| G25C A28C | 0.214 |
| G25U U55A | 0.216 |
| G25U U55G | 0.195 |
| G25C U58A | 0.308 |
| G25C U58C | 0.559 |
| G25A U58C | 0.581 |
| G25C A59U | 0.134 |
| G25C A59C | 0.232 |
| G25C A61U | 0.213 |
| G25C G34A | 0.821 |
| G25C G34U | 1.25 |
| A26G A28U | 0.491 |

| Variant | self-cleavage |
| --- | --- |
| A26G A28C | 0.358 |
| A26C U53C | 0.741 |
| A26C C48A | 0.045 |
| A26C C48U | 0.173 |
| A26C G54U | 0.314 |
| A26C G54A | 0.511 |
| G25A U62C | 0.224 |
| G25A U62A | 0.121 |
| A26C C65A | 0.614 |
| A26C C65U | 0.256 |
| G25U A39C | 0.336 |
| G25C U53C | 0.417 |
| G25C C65A | 0.382 |
| G25C C65G | 0.174 |
| G25U C50A | 0.283 |
| G25A G57A | 0.205 |
| G25A G69C | 0.228 |
| G25U A64C | 0.177 |
| G25C A31U | 0.143 |
| G25C A31C | 0.168 |
| A26C U63G | 0.0806 |
| A26C G57U | 0.32 |
| G25C U62C | 0.252 |
| G25C U62G | 0.0816 |

| Variant | self-cleavage |
| --- | --- |
| G25A G42A | 0.0699 |
| A26C U70G | 0.509 |
| G25A U53C | 0.659 |
| G25A U53A | 0.472 |
| G25C U60C | 0.673 |
| G25U U58G | 0.439 |
| A26C A30U | 0.165 |
| A26C A30G | 0.0971 |
| A26C A61C | 0.0459 |
| G25U G51A | 0.613 |
| G25U G51U | 0.671 |
| G25U A41G | 0.611 |
| G25U A41C | 0.953 |
| G25U G68U | 0.159 |
| G25U G68C | 0.243 |
| G25U C48A | 0.143 |
| G25U C48U | 0.163 |
| G25C C37G | 0.225 |
| G25C A45U | 0.205 |
| G25C A45G | 0.0878 |
| G25C A45C | 0.123 |
| A26C G34C | 1.47 |
| G25U G42C | 0.22 |
| G25U G42U | 0.183 |

| Variant | self-cleavage |
| --- | --- |
| G25C A47U | 0.0432 |
| G25C A35G | 0.578 |
| G25U U33G | 0.168 |
| A26C G68C | 0.147 |
| G25C A71U | 0.476 |
| G25C G27A | 0.213 |
| A26C A44U | 0.193 |
| A26C G51A | 0.67 |
| G25A U33A | 0.235 |
| G25A U33C | 0.0884 |
| G25U G54C | 0.241 |
| A26C A41C | 0.734 |
| G25A G68A | 0.164 |
| G25A G68U | 0.152 |
| G25U A49U | 0.136 |
| G25C G51A | 0.591 |
| G25C A36G | 0.497 |
| G25C A36C | 0.539 |
| G25C | 0.563 |
| G25U | 0.65 |
| G25A U63G | 0.173 |
| G25C G32A | 0.0816 |
| G25C G32U | 0.0809 |
| A26C A43C | 0.159 |

| Variant | self-cleavage |
| --- | --- |
| A26C U60A | 0.659 |
| A26C A47C | 0.199 |
| G25U A35C | 0.691 |
| A26C C37G | 0.373 |
| A26C C37A | 0.156 |
| G25C U33G | 0.197 |
| G25C U33C | 0.319 |
| G25C C46U | 0.0896 |
| A26C A71G | 1.01 |
| G25U A59U | 0.237 |
| G25U U67A | 0.145 |
| G25U U62C | 0.123 |
| G25U U53C | 0.689 |
| G25U U53G | 0.376 |
| A26C C66U | 0.315 |
| A26C A45U | 0.182 |
| A26C A45G | 0.136 |
| A26C U55A | 0.194 |
| G25C A39U | 0.262 |
| G25C A39C | 0.324 |
| G25C C66G | 0.217 |
| G25U U60C | 0.885 |
| G25U U60G | 0.288 |
| G25U A71G | 0.654 |

| Variant | self-cleavage |
| --- | --- |
| G25U A44U | 0.113 |
| G25U A44C | 0.229 |
| G25U A44G | 0.165 |
| G25C U67A | 0.136 |
| G25C U67G | 0.152 |
| G25U A30U | 0.0827 |
| G25U A30G | 0.124 |
| G25A G40U | 0.153 |
| A26C C46G | 0.106 |
| A26C A64U | 0.158 |
| A26C A64G | 0.539 |
| A26C A28G | 0.785 |
| G25C G56A | 0.149 |
| G25C C38G | 0.15 |
| G25C A49G | 0.255 |
| G25C A49U | 0.21 |
| G25U G69U | 0.165 |
| G25U G69C | 0.0669 |
| G25C A41U | 0.931 |
| G25U C65G | 0.211 |
| G25U C65U | 0.188 |
| G25U C65A | 0.735 |
| A26G A39U | 0.407 |
